Reference: the nanobody polyreactivity screen of Harvey et al. (2022)

Assay: yeast display, Sf9 membrane polyspecificity reagent, FACS + sequencing; frameworks hold sequencing errors
Procedure, shortened: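 In a synthetic yeast display library (Saccharomyces cerevisiae BJ5465), nanobody expression was induced with galactose for 36–48 hours. FACS gates were set low and high (top ~1%) using anti-HA fluorescence for expression and streptavidin fluorescence for binding of the Sf9 membrane reagent. Each polyreactivity label is drawn from the gate of origin.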

In the case of “QVQLVESGGGLVQAGGSLRLSCAASGSTVTYNTMGWYIQAPGKERELVAAISSGGSTYYADSVKGRFTISRDNAKNTVYLQMNSLKPEDTAVYYCAAEHYDYPYDYYCGQGTQVTVSS”, the “polyreactivity (PSR sort gate)” value is reported as “high polyreactivity”.
With “QVQLVESGGGLVQAGGSLRLSCAASGYIFLAYAMGWYRQAPGKERELVADNTYADSVKGRFTISRDNAKNTVYLQMNSLKPEDTAVYYCNADEVYDEYSYDYWGQGTQVTVSS” the “polyreactivity (PSR sort gate)” value was “low polyreactivity”.
In the case of “QVQLVESGGGLVQAGGSLRLSCAASGLIFRTYAMGWYRQAPGKERELVAAISSSGGSTYYADSVKGRFTISRDNAKNTVYLQMNSLKPEDTAVYYCNVGSRRRRYLDRYEYWGQGTQVTVSS”, the “polyreactivity (PSR sort gate)” value is reported as “high polyreactivity”.
With “QVQLVESGAGLVQAGGSLRLSSAASGSIFEPNAMGWYRQAPGKERELVAAITSGGTTYADSVKGRFTISRDNAKNSVYFQMNSLKPEDSAVYYCAAYYIFVYYYPFDYWGQGTQVTVSS” the “polyreactivity (PSR sort gate)” value was “low polyreactivity”.
For “QVQLVESGGGLVQAGGSLRLSCAASGFIFASYARGWYRQAPGKERELVAAISSSGGSTYADSVKGRFTISRDNAKNTVYLQMNSLKPEDTAVYYCAAQGYGDNRNKYYYWGQGTQVTISS”, the “polyreactivity (PSR sort gate)” value was “high polyreactivity”.
For “QVQLVESGGGLVQAGGSLRLSCAASGLTISAYAMGWYRQAPGKERELVAAITSSGGSTYADSVKGRFTISRDNAKNTVYLQMNSLKPEVTAVYYCAARVVRYGYKYYYWGQGTQVTVSS”, the “polyreactivity (PSR sort gate)” value was “low polyreactivity”.
For “QVQLVESGGGLVQAGGSLRLSCAASGRIFGRNARGWYRQAPGKERELVAAISSSGGTYYADSVKGRFTISRYNAKNTVYLQMNSLKPEDTAVYYCNARVRTQQRWVDYWGLGTQVTVSS”, the “polyreactivity (PSR sort gate)” value was “high polyreactivity”.
In the case of “QVQLVESGGGLVQAGGSLRLSCAASGRIFEHNTMGWYRQAPGKERELVAAINWRGGSTYYADSVKGRFTISRYNAKNTVYLQMNSLKPEDTAVYYCNKYWWSYSYASGYNYWGQGTQVTVSS”, the “polyreactivity (PSR sort gate)” value is reported as “high polyreactivity”.
In the case of “QVQLVESGGGLVQAGGSLRLSCAASGRIFVTNAMGWYRQAPGKERELVAAISYRGGRTYYADSVKGRFTISRDNAKNTVYLQMNSLKPEDTAVYYCNAVTRWPFDYWGQGTQVTVSS”, the “polyreactivity (PSR sort gate)” value is reported as “high polyreactivity”.
With “QVQLVESGGGLVQAGGSLRLSCAASGRTFGRNAMGWYRQATGKERELVAPISRDGSTYYADSVKGRFTISRDNAKNTVYLQMNSLKPEDTAVYYCAADRPWYYTLTPIHGYDYWGQGTQVTVSS” the “polyreactivity (PSR sort gate)” value was “low polyreactivity”.
In the case of “QVQLVESGGGLVQAGGSLRLSCAASGSTFGWYTMGWYRQAPGKERELVAAITSRGTRTSYADSVKGRFTISRDNAKNTVYLQMNSLKPEDTAVYYCAARVFRGLGEYYWGQGTQVTVSS”, the “polyreactivity (PSR sort gate)” value is reported as “high polyreactivity”.
With “QVQLVESGGGLVQAGGSLRLSCASSGRTFAYNAMGRYRQAPGKERELVAAITSSGGSTYYADSVKGRFTISRDNAKNTVYLQMNSLKPEDTAVYYCASYVRPDYYAIHVDYWGQGTQVTVSS” the “polyreactivity (PSR sort gate)” value was “low polyreactivity”.
In the case of “QVQLVESGGGLVQAGGSLRLSCAASGSTFTLYAMGWYRQAPGKERELVAAISWSSGSTYYADSVKGRFTISRDNAKNTVYLQMNSLKPEDTAVYYCNARRFGLTQYYYWGQGTQVTVSS”, the “polyreactivity (PSR sort gate)” value is reported as “low polyreactivity”.
With “QVQLVESGGGLVQAGGSLRLSCAPSGYIFEIYAMGWYSQEPGKERELVAAISTRGGRTYYADSVKGRFTISRDKAKNTVYLQMNSLKPEDTAVYYCAAGFPYKFTYVGGYNHWGQGTQVTVSS” the “polyreactivity (PSR sort gate)” value was “low polyreactivity”.
In the case of “QVQLVESGGGLVQAGGSLRLSCAASGSTFTRYVMGWYRQAPGKERELVAAISKRGGSTYYADSVKGRFTISRDNAKHTVYLQMNSLKPVDPAVYYCNRVSRAPFDYWGQGTQVTVSS”, the “polyreactivity (PSR sort gate)” value is reported as “high polyreactivity”.
For “QVQLVESGGGLVQAGGSLRLSCAASGGISMDNVMGWYRQAPGKERELVAAISKSGGRTFYADSVKGRFTISRDNAKNTVYLQMNSLKPEDTAVYYCAKLYKSKPYWYEHEYWGQGTQVTVSS”, the “polyreactivity (PSR sort gate)” value was “high polyreactivity”.
For “QVQLVESGGGLVQAGGSLRLSCAASGGIFDTYAMGWYRQAPGKERELVAAISSTGGSTYYADSVKGRFTISRDNAKNTVYLQMNSLKPEDTAVYYCNAVLARFWRYRRWEYDYWGQGTQVTLSS”, the “polyreactivity (PSR sort gate)” value was “high polyreactivity”.
In the case of “QVQLVESGGGLVQAGGSLRLSCAASGFIFGVYDMGWYRQAPGKERELVAAIDSVGSTYYADSVKGRFTISRDNAKNTVYFQMNSLKPEDTAGYYCNAARSRLYYVKYYYWGQGTQVTVSS”, the “polyreactivity (PSR sort gate)” value is reported as “low polyreactivity”.
In the case of “QVHLVESGGGLVQAGGSLRLSCAASGRIFGYYAMGWYRQAPGKVRELVAAIRRSGGSTYADSVKGRFTISRDNAKNTVYLQMNSLKPEDTAVYDCAAGHYWTSPYRVLSYSYWGQGTQVTVSS”, the “polyreactivity (PSR sort gate)” value is reported as “high polyreactivity”.
For “QVQLVESGGGIVQAGGSLRLSCAASGSIFYAYAMGWYRQAPGKERELVASISRGVNTNYADSVKGRFTISRDNAKNTVYLQMNSLKPEDTAVYYCNARLRYGHGYGYWGQGTQVTVSS”, the “polyreactivity (PSR sort gate)” value was “low polyreactivity”.
In the case of “QVQLVESGGGLVQAGGSLRLICAASGNTFRYYAMGWYRQAPGKERELDAAINSRGGTTSYADSVKGRFTISRDNAKNTVYLQMNSLKPEDTAVYYCAARSYYRGTFYPYYYWGQGTQVTVSS”, the “polyreactivity (PSR sort gate)” value is reported as “high polyreactivity”.
In the case of “QVQLVESGGGLVQAAGSLRLSCAASGITFSRNGMGWYRQAPGKERELFAAISTSGDSTDYADSVKGRFTISRDNAKNTVYLQMNSLKPEDTAVYYCNRDFSLVVHYKFDYWGQGTQVTVSS”, the “polyreactivity (PSR sort gate)” value is reported as “low polyreactivity”.
In the case of “QVQLVESGGGLVQAGGSLRLSCAASGRILNINAMGWYRQAPGKERELVAAITWRGGRTFYADSVKGRFTISRDNAKNTVYLQMNSLKPEDTAVYYCAASSNTWYPTGYYWGQGTQVTVSS”, the “polyreactivity (PSR sort gate)” value is reported as “high polyreactivity”.
In the case of “QVQLVESGVGLVQAGGSLRLSCAASGSIFFPNAMGWYRQAPGKQRELVAAITSTSTNYAESVKGRCTISRDNAKNTVYLQMNSLKPEDTAVYYCAADGEFRRAWYEGDYWGQGTQVTVSS”, the “polyreactivity (PSR sort gate)” value is reported as “low polyreactivity”.
For “QVQLVESGGGLVQAGGRLRLSCAASGRIFPVYTMGWYRQAPGKERELVAAISGNGASTYYADSVKGRFTISRDNAKNTVYLQMNSLKPEDTAVYYCAAYFYYWGSTFVRYEYWGQGTQVTVSS”, the “polyreactivity (PSR sort gate)” value was “high polyreactivity”.
With “QVQLVESGGGLVQAGGSLRLSCAASGRTFSPYAMGWYRQAPGKERELVAAIYNGGSTYYADSVKGRFTISRDNAKNTVYLQMNSLKPEDTAVYYCAAGRKSLYRIYSEYVEFDYWGQGTQVTVSS” the “polyreactivity (PSR sort gate)” value was “low polyreactivity”.
In the case of “QVQLVESGGGLVQAGGSLRLSCAASGITFRYYAMGWYRQAPGKERELVATITRGGSTYYADSVKGRFTISRDNAKNTVYLQMNSLKPEDTADYYCAAAGQRYTYWVDYWGQGTQVTVSS”, the “polyreactivity (PSR sort gate)” value is reported as “high polyreactivity”.
With “QVQLVESGGGLVQAGGSLRLSCAASRSTFSDNAMGWYRQAPGKERELVAAISRSGGSTYYADSVKGRFTISRDTAKNTVYLQMNSLKPEDTAVYYCATKRVLTGYDSWGQGTQVTVSS” the “polyreactivity (PSR sort gate)” value was “high polyreactivity”.
With “QVQLVESGGGLVQAGGSLRLSCAASGSTFINYAMGWYRQAPGKERELVAAISKGGGSTYYADSVKGRFTISRDNAKNTVYLQMTSLKPEDTAVYYCAATGRAGAGKRKYEYWGQGTQVTVSS” the “polyreactivity (PSR sort gate)” value was “high polyreactivity”.
For “QVQLVESGGGLVQAGGSLRLSCAASGSIFGINVMGWYRQAPGKERELVAAITSGTSTYYADSVKGLFTISRDNANNTVYLQMNSLKPEDTAVYYCAALWSSRFVVHPQWYDYWGQGTQVTVSS”, the “polyreactivity (PSR sort gate)” value was “low polyreactivity”.
In the case of “QVQLVESGGGLVQAGGSLRLSCAASGSTFTTYAMGWYRQAPGKERELVAVITDSGGTYYADSVKGRFTISRDNAKNTVYLQMNSLKPEDTAVYYCNRFFPPTDYEFDSWGQGTQVTVSS”, the “polyreactivity (PSR sort gate)” value is reported as “low polyreactivity”.
With “QVLLQESGGGLVQEGGSLRLTCAASGNIFSAGGMAWYRQATVNERELVAGIGTGTSTNYADSVKGRFTISRDNAKNTVYLQMNSLKPEDTAVYYCAAAYYSGLSHWYWGQCTQVTVSS” the “polyreactivity (PSR sort gate)” value was “low polyreactivity”.
With “QVQLVESGGGLVQAGGSLRLSCAASGRIYVPNAMGWYRQAPGKERELVAAITSDGRTNDADSVKGRFTISRDNAKNTVYVQMNSLKPEDTAVYYSNAPVVTFGGYQDDVEYGYWGQGTQVTVSS” the “polyreactivity (PSR sort gate)” value was “low polyreactivity”.
For “QVQLVESGGGLVHAGGSLRLSCAPSGSTFDDYTMGWYRPAPGKERELVAAISSAGSTNYADSVKGRFTISRDNAKNTVYLQMNSLKPEDTAVYYCAAQVHPIRYDYWGQGTQVTVSS”, the “polyreactivity (PSR sort gate)” value was “low polyreactivity”.
In the case of “QVQLVESGGGLVQAGGSLRLSCAASGSIFGVYAMGWYRQAPGKERELVAAISWSGTSTYYADSVKGRFTISRDNAKNTVYLQMNSLKPEDTAVYYCNADWVLDGYDYDYWGQGTQVTVSS”, the “polyreactivity (PSR sort gate)” value is reported as “low polyreactivity”.
In the case of “QVQLVESGGGLVQAGGSLRLTCAASGSTFWAYAMGWYRQAPGKERELVAAITTGGGRTFYADSVKGRFTISRDNAKNTVYLQMNSLIPEDTAVYYCAAVSQSYRMYYWGQGTQVTVSS”, the “polyreactivity (PSR sort gate)” value is reported as “low polyreactivity”.
For “QVQLVESGGGLVQAGGSLRLSCAASGNTFDGYDMGWYRQAPGKERELVAAITNTGASTYYADSVKGRFTISRDNAKNTVYLQMNSLKPEDTAVYYCTAQDSYPEDRHGMSYWGQGTQVTVSS”, the “polyreactivity (PSR sort gate)” value was “low polyreactivity”.
For “QVQLVESGGGLVQAGGSLRLSCAASGSTFHWYVMGWYRQAPAKERELVAAITWSGGSTYYADSVKGRFTISRDNAKNTVYLQMNSLKPEDTAVYYCNAVFWIWNAGYDYWGQGTQVTVSS”, the “polyreactivity (PSR sort gate)” value was “low polyreactivity”.
For “QVQLVESGGGLVQAGGSLRLSCAASGFIFSRYAKGWSRPAPGKERELVAAITRGGGDTYYADSVKGRFTISRDNAKNTVYLQMNSLKPEDTAVYYCNARYRRYTTRFGAMDYWGQGTQVTVSS”, the “polyreactivity (PSR sort gate)” value was “high polyreactivity”.
For “QVQLVETGGGLVQAGGSLRLSCAASGGIFSYAMVWYRQAPGKEMELVADINSDGSTTYADSVKGRFTISRDNAKNTVYLQMNRLKPEDTAVYFCAVDVSVNWPLLERYEYWGQGSQVTVSS”, the “polyreactivity (PSR sort gate)” value was “low polyreactivity”.
With “QVQLVESGGGLVQAGGSLRLSCAASGNTFYSYAMGWYRPAPGKERELVAAITWGGRTKYADSVKGRFTISRDNAKNTVYLQMNSLKPEDTAVYYCAARLYHGKTKYDYWGQGTQVTVSS” the “polyreactivity (PSR sort gate)” value was “high polyreactivity”.
For “QVQLEDSGGGLVQAGGSLRLSCAASGITVFYYAMGWSRQAPGKERELVATMSWGGDSTYSADSVKGRFTISRDNAKNTVYLQMNSLKPEDTAVYYCAARYWFFRFWYDYWGQGTQVTVSS”, the “polyreactivity (PSR sort gate)” value was “high polyreactivity”.
In the case of “QVQLVESGRGLVQAGGSLRLSCAASGTTCLYYTMGWYRQAPGKERELVASISYSGGRTYYADSVKGRFTISRDNAKNTVYLQMNSLKPEDTAVYYCNKKRYYDGYDYWGQGTQVTVSS”, the “polyreactivity (PSR sort gate)” value is reported as “high polyreactivity”.
